{"source": "the DeepSol protein solubility set", "data": [{"assay": "soluble on expression in E. coli; label from the status in PepcDB or PDB records", "values": [{"sequence": "MGSDKIHHHHHHMNLWTSTPPMLRQISVRAAMDILLHQGPTSRADLAKKTGLSKQTMSEVIRTLETAGWVRVKGIVSGKVGRSAVTYEVAPDAGFVIGMDIGATTIRVAIADIAGTIVHEVEKSAGEHGGEALLAHVSGVVEASLKKARVSRSKVLLAAVAMPGVIDPETGRLSLAPNLSEIGSLDVIKALQGIFRCDVIIENDVNAAVIGESWKGSGIGLDSVAFVSLGTGIGLGVLFNGKLMRGAKGAAGEIGYLPFGADPYNSESLERGALECAIGARGILERYGNPGDGGMTVRDILEAAEKGDAKALATVQETARLAALLVVSVHAMLDPGKIILGGNVGRNPLMVRMVKEALATSTRSSISLEASTLASRATLVGAVAIALNQLHNALFSPQDLPSEMRLPA", "soluble on expression in E. coli": "not soluble"}, {"sequence": "MGSDKIHHHHHHMNLYEKLAEDIETSIRQGVYRHGERLPSVRQISQQHRISVTTAIRAYLLLESRGLVTSRPQSGYFVNRRDESERKALELRPSKPIPISSPVDVSRLVLSTLRSIGVDDAVPLGSPYPDPSLFPFERINRYAYDAGRGKAQWGVTDALPPGNAKLVRQIARRYLENGMAVDPNEIIITVGATEAINLCLQAVAKPGDVIAVESPTFYAMLHAIERMGMKAIEVSTHPEHGIDIEALAAIVESQPIAACMVMPNFQNPLGFLMPDERKRELVELLTKRNIPVIENGVYNELHFDSPHPSTLKSFDTKGLVLHCSSFSKSLTSAYRIGWALPGRYRDQVEKLKFLNTLTSPSIPQLAIAEFLERDGFEHHLRKVRKAYAQQANLMKAIVSRFFPEGTRMSNPAGGYVLWVELPPRVDSMRLYKLALDQGITIGPGYMFSVSETTYRNFIRLNYSSPWSGEIEQAVITVGKLVSMCAS", "soluble on expression in E. coli": "not soluble"}, {"sequence": "MGSDKIHHHHHHMNNSIITDDEVREFYLNCSSQTIIESLLSLHESLRLYSQNHEILLNRMFKKLDETNADSNISHIFMPVVSKDFSGIKILVNNNNKNFQGVINVIEPETGKLIGCFEAKQITAIRTALASCIGLYKQLSCSHDKLFRFENGTCYLTCFGTGLQAFWHIYIAIKLIMSGIVGESLKLVEINILYHNNMMSLDRLKSLKNLFGSNIKIELNQYQINDISSEGNGAVSNSDIIFGCLPTLEPNLFLRQLLNSKASVEQKHTYISLIGSYKPVMHECDKELIDKFKSDNESACILVDSREHTLLESGELIDSNIAPHNLIEIGELDTLKNTVLNLNEKGCKRTITLCKIVGLAVMDVALAKEFLSLRTKNTENKE", "soluble on expression in E. coli": "not soluble"}, {"sequence": "MGSDKIHHHHHHMNPKKLKQLKKRVKKQAGAPYIQQLMKYRDLFKDDPQILVLINNVLESDRLLAAGLAPQQLPVLEIPDDFQDHLFERINQQYAMGDPAGDAAWNQLSAALPKVDQLLRNFRDYIEDQYGMWAYISAPFLKDLADFTGSAPVLEVMAGNGYISKGLKRLHPGQPIYTTDSKDWTHETGNQTGRHPVTTIEALDAVSAFNKYAATIKYVIMAWSPDKLTIDWDLLQAMRQSPYDIPLIVIGEKYGATGSKQFWDHANYQDNEAVTKLNAHFRPFDLIHDHVYVVR", "soluble on expression in E. coli": "not soluble"}, {"sequence": "MGSDKIHHHHHHMNQEDDAKLAYLMAVNAIQMTKARYCRFVDTKQWDRLRTLFTADCRFEGLGSAPDRADLDIFIQGISRRLAHVVSVHHCHMGEIELVGADEAKVIWAMEDHLEWQDSGEVVEAPGNRGFRGYGHYEECYVRQGDTWKISLLRLTRLGIHPIPDAQPRLGTGRLGANPDWLPSDRRLR", "soluble on expression in E. coli": "not soluble"}, {"sequence": "MGSDKIHHHHHHMNQEQNDIAIRVSNLSKCYHIYDTPRDRLKQFILPRLHHLTGQTPRQYFREFWALRDVSFEVKKGETIGIIGRNGSGKSTLLQMICGTLNPTSGSITTYGRIAALLELGSGFNPEFTGRENVYMNASVLGLSQEETDARFDDIAAFADIGEFIEQPVKTYSSGMMVRLGFAVQAQVKPDILIVDEALAVGDAKFQAKCFDRLQQLKDGGTSILLVTHSSEQIVTHCSEAILLDGGDVIEHGEPRYVVNHYMDLLFGKERKSYSASAFSTESNSVEPTQDDNLSLNFIDDVFSSHANYNEHEYRWGDGTATILDFYLLTDNEPYPSVITSGQSVVLGVAVRFYEDLVRPILGITIKTKEGVTVYGVNSETLETDEIKVLGSKGTTALIKAEFICRLAPGDYFISLGLATRKGEEIVPHDRRYDAIYLQIAPVTKFFGLVDLGLKLSAQNTSL", "soluble on expression in E. coli": "not soluble"}, {"sequence": "MGSDKIHHHHHHMNQHIKGKHLSFEERVIIQLRLKDGYSLRAIARELNCSPSTISYEVKRGTVELYGKVKRYKATQGHDAYQAHRKNCGRKSDFLRKTQFMRYVHKHFFKDGWSLDVCSNRATAVGAFSSRDVVCTKTLYNYVDQGLLDIHNYDLPEKLKRNTKLHRIRKNKKKLGRSIEERPKEINKRNEFGHWECDLVLGHKCTDDEVLLALSERMSREFLILRIPDKTSVSVMQAFKELQRQYSEHWNDIFKTITTDNGSEFADLSNLEKASNTLVYYAHPYTSCDKGTVERHNGLIRRFIPKEEAIANYSLQDIINIETWCNSLPRKILAYHTPDEIFERELDLIYQAA", "soluble on expression in E. coli": "not soluble"}, {"sequence": "MGSDKIHHHHHHMNQMQQWKPDFLGEGYQNLTIELGDDPDNETDVVTTVVRYNPDNHADESFAARPALLWVHGMTDYFFHTEFAEFFHNAGFAVYGIDLRKCGRSYRPGQQWHYTSDLAHYFPDLTAAAEVISSTHPELVPVAHSTGGLIVPLWMSQMRTSNPAAIEKIPALVLNSPWLDMMYPPLFIKLITPMVRVLGKRSPTTIIPGGGLGAYGKSIHKNFYGEWDFDTTIKPVEGHKKSIGWLRAVMAGQAEIHHDHVNVGVDVLTLCSNKSWLKSEYTEDTNTSDAVLDVKHIQKWAPHLSSPSSRVDVEIIDNARHDIFLSRKPARDHASEVLNNWLQSKLSSLKPSQ", "soluble on expression in E. coli": "not soluble"}, {"sequence": "MGSDKIHHHHHHMNRLVSRSTLLNASRCFSRTAEASAKQTCLIETHKKHGGKLVEFAGYDMPTQYADFSIKESTIHTRKHVSLFDVSHMLQTYITGKDRVAFIESLTTADVQGLQENSGTLSVFTNEKGGIKDDLIIMKTDKDFLFLVTNAGCIEKDLPYLQENAAAWRSKGKDVKIETLDNRGLVAVQGPEMAKVLQEGTDIDLSKLTFMKTTVGKVFGIDGCRVTRCGYTGEDGVEISVDPTKAEQLVERLLASQAGSVKLAGLGARDALRLEAGLCLYGSDIEENTTPIEAGLAFVVAKRRRETLDFPGAEHIVKQLKEKSWPKRRVGLLAPAGRCPRSHLPLIDPLDKCSIGFVTSGCPSPTLGKNIAIAYVDKSHSKIGTKFVVDFGAKQAPVEVVKMPFVPTNYFTGK", "soluble on expression in E. coli": "not soluble"}, {"sequence": "MGSDKIHHHHHHMNRNNFSHEIIEPIDNLDVNFKLFDDSGSYVANHWHNSLEIIYITSGDLQINMEGYTYNLKANECMFINSGIIHSTRCIYQNTSILLQVPLSFLNKYIPDFKNCYFDFKVNANDNNYKKNSSKVKLILENMREIKLSSPPAANLLFTSLLFELLFELYTNFKISVGNKNMKKTVLDLSKFEPVLEYTKINYKMPISINKIAKVAHLQPEYFCRKFKQYMGQTYLEYLNDVRISHIYKDLINTNDTLCSILEAHGFTNTKLFYRIFKEKFKCTPKHIRKKST", "soluble on expression in E. coli": "not soluble"}, {"sequence": "MGSDKIHHHHHHMNSELEINLRKLGFSVYEAKVYLTLLNLCNSTMKELSENAEIPYQKVYEVVKSLEDKGLVRVIEGRPKKVKLIDPSISLKVYRDKIVSELDYAIGNVISYWSEKGKGEADRSLHIKGKTIVMRMIRELVDKSNKIKVVWDILPEWLIKILKKYKGNLTVITSSNNLSLNAEVKYVKNIKSKFIIFDDSVLVTFNDQDEIVVDSCRGCVLQAEEHFDLLTYKSE", "soluble on expression in E. coli": "not soluble"}, {"sequence": "MGSDKIHHHHHHMNSGIYSALTGNVAAMKRLDVLSNNLANVNTPGFKKDRMTFESMLQTVGAQPRPGGGTDAPVFAETTFFTDYSPGSVKQTGNPFDLAIDGDGFFAVTTADGQRAYTRQGNFRLDSTGRLVTADGAQVAGGVVIAGGKVDINGKGEVLVDGSQVGRLEVVDFPKPYALQKLGGGLFVPADPQATPNPVTGEKVMQGAIEESNVNTVQEMVQLIETNRYFEMCSKVVKAYDDLTGKAANEIGKI", "soluble on expression in E. coli": "not soluble"}, {"sequence": "MGSDKIHHHHHHMNSIPHLILGDIITPTQAGQSLLIKKGYVLINGDSIIEVGEQAHFNKEISYTVSNYPDHLILPGLIDTHSHLSQYAICGAGDLPLMDWLNTLVFPAETAFSSNLQRCQRHAELYMHACLGSGTTTINTMVTSSRQATEIVCDVAARLGIRAFIGLVLMDRNAPDNLLVDCAQAFKDLTVLKDRYHGKNNIHITVSPRFAVTCSAAMLRQAGEFARANKLILHTHLDKDEGFDELIQSLFSTAHDYFDVFESTQCIADKTVFAHGTLLSLHEMKRMGDYAKQVGISHCPSSNFSFAMGMAPVSFFKGLGIEVGLGSDSGGGDSLSLFDEMRSASFTNKALWRLDKKTALIDAKTWLYHATLGGAKLLGLEKQIGSIEAGKKADLIILDDRNNYPLAELSSLSQELALDELQYRLARVIARSCENKLVAVYIDGKKVYQ", "soluble on expression in E. coli": "not soluble"}, {"sequence": "MGSDKIHHHHHHMNSRTSFVSPDDRFSMVYFKMEHEGCWTGITKEHNIAIHTLKIIPLKDRNNIYGLFEIRAQGKKEFRDFLRRINREKTIHRVMAYSPSELRKNVYFIDLYEVYGGMIEGILNDYQSIFEYDVVRRGVEEKYAIIPSDRVLELKNSINGLGKIYQFKARCIKNFYYAFSPFLSYTPSEMQIIAEAVSRGYYSIPRHVGIRDLAEYFGMSKSTVQEYLRKAEQKTMNNLKLLKLMNEMKE", "soluble on expression in E. coli": "not soluble"}, {"sequence": "MGSDKIHHHHHHMNTKKESALSFPSAGIESFGERLKELMGDESLRAFANAIDTSEGGVRKWFTQSTMPSFDKMVRIARRYNVNLEWLCTGEGPKFPGETAAYESVICKTEEFSEEYALIDGYHTQVSTGHGAQWDNERVRRKLAFRSKWLRYRGLQPENLRVVFAKGDSMEPTIHSGDSILVDITDANLSDGSIFVLRIGDDLFAKRVQVHIDGSITIISDNKEYREQRVPVAELGLLSVVGKVVWIGKDVK", "soluble on expression in E. coli": "not soluble"}, {"sequence": "MGSDKIHHHHHHMNTLKKITNNISKVIIGKDESIELAAIALIAKGHILLEDVPGTGKTTLAKSLAKSVDAKFQRIQFTADTLPGDVIGLEYFNVKESDFKTRLGPIFANIVLVDEINRAVPRTQSSLLEVMEERTVTIAKQTHSLPEPFLVIATQNPLESAGTFPLPDAQLDRFLLTIRQGYPTREAEKEMMNRFQMNDPLETLHSIISSEEIITMQKRAREVLVGNDVQDYLLEIIEATRKHELIEIGVSPRGTLAFMRAIQARAILNERDYCTPDDIKQLAASICTHRLTLTIEGEMKTTKEQIMKEILHTIDVPVENVR", "soluble on expression in E. coli": "not soluble"}, {"sequence": "MGSDKIHHHHHHMNTNDTELLRLFETLTTEQKIDIARHLLQNKDIKSTTVIATEEDKAISFAQPYVFAFTSNFRVFSDLDISKNEFRVLTYILEYMEFGNLINLSQSSLCKALNIASGNMSNIFKKLKQKGILVEHHGHLYINSNIFAKGLSHQLDEKRKEHLSNARSLHAELEQYPENYTDYSKQERRNLALETETKEIYTDAFIFSKKKKNNAVPNAKNSIKIDKPRKVYKRTKENEAARKDLADAKNHLKAVS", "soluble on expression in E. coli": "not soluble"}, {"sequence": "MGSDKIHHHHHHMNVAILLAAGKGERMSENVPKQFLEIEGRMLFEYPLSTFLKSEAIDGVVIVTRREWFEVVEKRVFHEKVLGIVEGGDTRSQSVRSALEFLEKFSPSYVLVHDSARPFLRKKHVSEVLRRARETGAATLALKNSDALVRVENDRIEYIPRKGVYRILTPQAFSYEILKKAHENGGEWADDTEPVQKLGVKIALVEGDPLCFKVTFKEDLELARIIAREWERIP", "soluble on expression in E. coli": "soluble"}, {"sequence": "MGSDKIHHHHHHMPDGNQSLTVTVLSAIAEIGAEEWDGCAGSHNPFIRHAFLLAMEHSGSATAQTGWTPRHLAVRDAEGRLLAAAPLYLKSHSFGEYVFDWSWAQAYERAGGRYYPKLQCAVPFTPVTGPRLLVRPGEDGPRLRRVLAASMVDLARRLGASSVHVTFPSGQEYEGLGEVGYLQRLGSQYHWSNQGYQSFDDFLGQLSSRKRKQIRKERDAVARSGVRITTLVGTEVKSRHWDVFHAFYESVVDRKWGRAYVNRAFFEELSASNLAEAVVLVWAEDDGEPLGAAFNMLGKDTLYGRTWGGGRHVDFLHFEACYYRALDFAIAHGLARVEAGAQGEHKVSRGYLPTPTYSAHWIADAALAEPVARYLAHERAQVAEDMADQTEEGPFRKA", "soluble on expression in E. coli": "not soluble"}]}]}
